Measured values as given in patent US20240294622A1 (SUZHOU TRANSCENTA THERAPEUTICS, published 2024).

T1: HGREM1-His (ACRO) (human, UniProt O60565 25-184)
T1 construct: Lys25-Asp184 of NP_037504 with C-terminal polyhistidine tag (ACRO GR1-H52H3); they are put here; also called hGREM1 (ACRO); human gremlin (ACRO)
T1 sequence: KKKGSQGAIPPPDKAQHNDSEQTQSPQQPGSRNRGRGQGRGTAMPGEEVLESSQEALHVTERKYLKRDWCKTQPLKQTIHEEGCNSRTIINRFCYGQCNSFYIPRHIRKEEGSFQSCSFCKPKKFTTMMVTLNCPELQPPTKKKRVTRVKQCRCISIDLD

T2: Mouse Gremlin-His (R&D) (mouse, UniProt O70326 25-184)
T2 construct: Lys25-Asp184 with 10xHis, R&D 956-GR; also called mouse gremlin (R&D); mGREM1
T2 sequence: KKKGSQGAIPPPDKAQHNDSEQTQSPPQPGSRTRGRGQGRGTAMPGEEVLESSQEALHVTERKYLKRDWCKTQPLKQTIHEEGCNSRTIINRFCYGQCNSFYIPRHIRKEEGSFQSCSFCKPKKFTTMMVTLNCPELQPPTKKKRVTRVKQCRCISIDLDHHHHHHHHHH

T3: XM5-Fc (human (hGREM1 with residues 123-143 …))
T3 construct: also called gremlin 1-DAN fusion protein
T3 chain: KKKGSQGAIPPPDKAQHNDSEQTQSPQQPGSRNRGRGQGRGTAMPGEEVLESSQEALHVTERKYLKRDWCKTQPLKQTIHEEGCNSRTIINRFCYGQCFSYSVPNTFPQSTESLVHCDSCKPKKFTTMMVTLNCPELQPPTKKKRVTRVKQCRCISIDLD

T4: DAN-his (Sinobiological) (human, UniProt P41271 17-181, limits assumed)
T4 construct: also called DAN (Sinobiological); human DAN-his
T4 sequence (looked up): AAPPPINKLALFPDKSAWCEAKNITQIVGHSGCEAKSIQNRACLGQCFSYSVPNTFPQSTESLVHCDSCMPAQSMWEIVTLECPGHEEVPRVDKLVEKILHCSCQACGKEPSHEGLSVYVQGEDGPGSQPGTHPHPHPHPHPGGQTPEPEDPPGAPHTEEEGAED


What was measured:
HGREM1-His (ACRO) [1] = target: T1, HGREM1-His (ACRO); test: ELISA, coated hGREM1 (ACRO)
Method: (§1) Clear polystyrene plates (BEAVER) were coated with 100 μl/well of a […] hGREM1 (ACRO) and mouse gremlin (R&D) in high pH coating buffer overnight at 4° C. Then the plates were washed once on an automatic plate washer using PBS+0.1% Tween 20 (Sigma). 100 μl of block solution consisting of PBS+1% BSA+1% normal goat serum+0.5% Tween 20 (Sigma) was added to each well and incubated at room temperature for 2 hours. Then 100 μl of antibodies in antibody dilution buffer containing PBS+1% BSA+1% normal goat serum+0.01% Tween 20 starting from 2 μg/ml and then serial dilutions were added to each well of the plate and incubated for 1 hours at room temperature. Afterward the plates were washed three times with 200 μl of PBS+0.1% Tween20 followed by adding 100 μl/well 1:10000 Goat anti mouse IgG-HRP (abcam), and incubate for 1 hour at room temperature. They were then washed 3× with PBS+0.1% Tween20. Finally, 100 µl/well of TMB (Pierce) was added to each well and after several minutes add 50 μl of stop solution to each well. The plates were read on a Multiscan FC microplate reader (Thermo Scientific) at […].

Mouse Gremlin-His (R&D) [2] = target: T2, Mouse Gremlin-His (R&D); test: ELISA, coated mouse gremlin (R&D)
Method: as §1

XM5-Fc = target: T3, XM5-Fc; test: ELISA on coated XM5-Fc (column XM5)
Method: (§2) Binding affinities to hGREM1 and XM5 were also compared. Briefly, XM5-Fc or Gremlin-his […] was coated. 100 μl of block solution consisting of PBS+1% BSA+1% normal goat serum+0.5% Tween 20 (Sigma) was added to each well and incubated at room temperature for 2 hours. 4-fold serial antibody dilution from 2 μg/ml were added. Afterward the plates were washed three times with 200 ul of PBS+0.1% Tween20 followed by adding 100 μl/well 1:10000 Goat anti mouse IgG-HRP (abeam), and incubate for 1 hour at room temperature. They were then washed 3× with PBS+0.1% Tween20. Finally, 100 μl/well of TMB (InnoReagents) was added to each well and after 2 minutes add 50 ul of stop solution to each well. The plates were read on a Multiscan FC microplate reader (Thermo Scientific) at […]. The EC50 values were show in table below.

HGREM1-His (ACRO) [3] = target: T1, HGREM1-His (ACRO); test: competition ELISA, Gremlin-his binding to coated BMP7
HGREM1-His (ACRO) [4] = target: T1, HGREM1-His (ACRO); test: ELISA on coated Gremlin-his (column Gremlin)
Method: as §2

HGREM1-His (ACRO) [5] = target: T1, HGREM1-His (ACRO); test: blocking ELISA, Human Gremlin-1 binding to FGFR1
Method: Next, 0.25 μg/ml of gremlin was selected to test the blocking activity. The ability of antibodies to block Gremlin binding to human FGFR1-Fc was examined via ELISA. Plates were coated with recombinant FGFR1-Fc (2 μg/ml) overnight and then serial dilutions of antibodies were incubated with 0.25 μg/ml of human Gremlin-his modified for 1 h at RT before this complex was added to coated plates and allowed to incubate for an additional hour at RT. The plates were then washed and added with anti-his HRP (GenScript). Plates were then developed with a TMB solution and stopped by adding stop solution. The plates were read on a plate reader at 450 nm. […] Humanized anti-GREM1 antibodies provided herein (e.g., Hu14E3, Hu22F1) are expected to show the similar technical effect as their chimeric counterparts in blocking the binding of hGREM1 to FGFR1.

HGREM1-His (ACRO) [6] = target: T1, HGREM1-His (ACRO); test: blocking ELISA, Human Gremlin-1 binding to BMP2; column OD450
Method: (§3) In addition, the ability of serial dilutions of antibodies provided herein to block Gremlin binding to human BMP2/4/7 was also examined via ELISA. Plates were coated with recombinant human BMP2/4/7 (0.5 μg/ml) overnight and then serial dilutions of antibodies were incubated with 1 μg/ml of human Gremlin-his modified for 1 h at RT before this complex was added to coated plates and allowed to incubate for an additional hour at RT. The plates were then washed and added with anti-his HRP (GenScript). Plates were then developed with a TMB solution and stopped by adding stop solution. The plates were read on a plate reader at 450 nm. […] The chimeric anti-gremlin 1 antibodies (69H5-chi) and chimeric anti-gremlin 1 antibodies (22F1-chi) also can inhibit the binding of gremlin to BMP2 and BMP4 (see, FIG. 3E and FIG. 3F). The chimeric anti-gremlin 1 antibodies (56C11-chi) can inhibit the binding of gremlin to BMP2 (see, FIG. 3E).

HGREM1-His (ACRO) [7] = target: T1, HGREM1-His (ACRO); test: blocking ELISA, Human Gremlin-1 binding to BMP4; column OD450
Method: as §3

HGREM1-His (ACRO) [8] = target: T1, HGREM1-His (ACRO); test: blocking ELISA, Human Gremlin-1 binding to BMP7; column OD450
Method: as §3

HGREM1-His (ACRO) [9] = target: T1, HGREM1-His (ACRO); test: blocking ELISA, Human Gremlin-1 binding to BMP2; column Percentage
Method: as §3

HGREM1-His (ACRO) [10] = target: T1, HGREM1-His (ACRO); test: blocking ELISA, Human Gremlin-1 binding to BMP4; column Percentage
Method: as §3

HGREM1-His (ACRO) [11] = target: T1, HGREM1-His (ACRO); test: blocking ELISA, Human Gremlin-1 binding to BMP7; column Percentage
Method: as §3

DAN-his (Sinobiological) = target: T4, DAN-his (Sinobiological); test: ELISA on coated DAN-his; unit from the axis Ab(nM); panel called FIG. 19C in the text
Method: (§4) Clear polystyrene plates (BEAVER) were coated with 100 μl/well of a 0.5 μg/ml human gremlin (ACRO) and DAN (Sinobiological) in high pH coating buffer overnight at 4° C. Then the plates were washed once on an automatic plate washer using PBS+0.1% Tween 20 (Sigma). 100 μl of block solution consisting of PBS+1% BSA+1% normal goat serum+0.5% Tween 20 (Sigma) was added to each well and incubated at room temperature for 2 hours. Then 100 ul of antibodies (hybridoma or chimeric antibody 36F5, chimeric antibody 67G11, chimeric antibody 42B9) in antibody dilution buffer containing PBS+1% BSA+1% normal goat serum+0.01% Tween 20 starting from 2 μg/ml (13.33 nM) and then 4 fold serial dilution were added to each well of the plate and incubated for 1 hours at room temperature. Afterward the plates were washed three times with 200 ul of PBS+0.1% Tween20 followed by adding 100 μl/well 1:10000 Goat anti mouse IgG-HRP or mouse anti-human IgG-HRP (abcam), and incubate for 1 hour at room temperature. They were then washed 3× with PBS+0.1% Tween20. Finally, 100 μl/well of TMB (InnoReagents) was added to each well and after 2 minutes add 50 ul of stop solution to each well. The plates were read on a Multiscan FC microplate reader (Thermo Scientific) at 450 nm.

HGREM1-His (ACRO) [12] = target: T1, HGREM1-His (ACRO); test: ELISA on coated human Gremlin-his; unit from the axis Ab(nM); panel called FIG. 19C in the text
Method: as §4

Mouse Gremlin-His (R&D) [13] = target: T2, Mouse Gremlin-His (R&D); test: ELISA on coated Mouse Gremlin-his, anti-mouse IgG-HRP
Method: as §1

| EC50 (HGREM1-His (ACRO) [1]) | EC50 (Mouse Gremlin-His (R&D) [2]) | EC50 (XM5-Fc) | maximal blocking percentage (HGREM1-His (ACRO) [3]) | EC50 (HGREM1-His (ACRO) [4]) | IC50 (HGREM1-His (ACRO) [5]) | IC50 (HGREM1-His (ACRO) [6]) | IC50 (HGREM1-His (ACRO) [7]) | IC50 (HGREM1-His (ACRO) [8]) | IC50 (HGREM1-His (ACRO) [9]) | IC50 (HGREM1-His (ACRO) [10]) | IC50 (HGREM1-His (ACRO) [11]) | EC50 (DAN-his (Sinobiological)) | EC50 (HGREM1-His (ACRO) [12]) | binding result (Mouse Gremlin-His (R&D) [13]) | Binder |
| --- | --- | --- | --- | --- | --- | --- | --- | --- | --- | --- | --- | --- | --- | --- | --- |
| 0.00806 µg/mL | 0.00851 µg/mL | 0.00712 µg/mL | ≥ 50% | 0.0134 µg/mL | 2.79 µg/mL | 0.752 µg/mL | 0.397 µg/mL | 0.916 µg/mL | 0.752 µg/mL | 0.396 µg/mL | 0.928 µg/mL | – | – | – | 42B9 (antibody, V domains shown, mouse hybridoma antibody; also called hybridoma 42B9) VH: QVQLQQSGAELARPGASVKLSCKASGYTFTSYGIGWVKQRTGQGLEWIGEIYPRSGNTYNNEKFKGKATLTADKSSRTVYMELRSLISEDSAVYFCAREGYSNNYYAMDYWGQGTSVTVFS VL: DVLMTQTPLSLPVSLGDQASISCISSQSLVHSNGNTYLEWYLQKPGLSPKLLIYKVSNRFSGVPDRLSGSGSGTDFTLRISRVEAEDLGVYYCFQGSHVPFTFGSGTKLEIK |
| – | – | – | – | – | – | – | – | – | – | – | – | 17.8 pM | 19 pM | – | chimeric antibody 67G11 (antibody, human IgG1, V domains shown) VH: QVQLQQSGAELARPGASVKLSCKASGYTFTSYGIGWVKQRTGQGLEWIGEIYPRSGNTYNNEKFKGKATLTADKSSRTVYMELRSLISEDSAVYFCAREGYSNNYYAMDYWGQGTSVTVFS VL: DVLMTQTPLSLPVSLGDQASISCRSSQSLVHSNGNTYLEWYLQKPGQSPKLLIYKVSNRFSGVPDRLSGSGSGTDFTLKISRVEAEDLGVYYCFQGSHVPFTFGSGTKLEIK |
| 0.106 µg/mL | – | – | – | – | – | – | – | – | – | – | – | – | – | no binding | 69H5 (antibody, V domains shown, mouse hybridoma antibody; also called hybridoma 69H5) VH: EVQLQQSGAELVRPGASVKLSCTASGFNIKDDYMHWVKRRPEQGLEWIGWIDPENGDTEYASKFQGKATITADTSSNTAYLQLSSLTSEDTAVYYCTTWATVPDFDYWGQGTTLTVSS VL: DIVMTQSPSSLAMSVGQKVTMSCKSSQSLLNRSNQKNYLAWYQQKPGQSPKLLVHFTSTRESGVPDRFIGSGSGTDFTLTISNLQAEDLADYFCQQHYSTPFTFGSGTKLEIK |
